The target in this series is T1, drRecJ R109A (Deinococcus radiodurans, UniProt D0EM60 1-705, R109A).
T1 sequence: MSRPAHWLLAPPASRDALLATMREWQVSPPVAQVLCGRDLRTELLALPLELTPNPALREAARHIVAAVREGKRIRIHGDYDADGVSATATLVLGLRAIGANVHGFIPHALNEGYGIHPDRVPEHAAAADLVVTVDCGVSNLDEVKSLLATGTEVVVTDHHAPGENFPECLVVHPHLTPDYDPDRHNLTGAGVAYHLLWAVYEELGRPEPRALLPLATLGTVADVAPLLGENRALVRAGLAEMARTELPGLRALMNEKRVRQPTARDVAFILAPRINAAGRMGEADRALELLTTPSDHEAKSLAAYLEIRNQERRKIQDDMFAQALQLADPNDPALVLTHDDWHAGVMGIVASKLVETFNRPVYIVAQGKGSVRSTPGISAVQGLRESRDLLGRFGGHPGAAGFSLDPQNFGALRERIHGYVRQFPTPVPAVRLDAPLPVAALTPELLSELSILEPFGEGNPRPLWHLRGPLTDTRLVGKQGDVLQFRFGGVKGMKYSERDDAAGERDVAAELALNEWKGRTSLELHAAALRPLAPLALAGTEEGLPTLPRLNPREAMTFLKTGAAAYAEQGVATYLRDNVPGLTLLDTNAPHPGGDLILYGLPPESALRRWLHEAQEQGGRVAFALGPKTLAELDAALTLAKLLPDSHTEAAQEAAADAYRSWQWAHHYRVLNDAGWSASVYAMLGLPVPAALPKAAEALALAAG
Put plainly: EMSA; no Mn2+ added; EMSA: 10 nM 3'-6-FAM ssDNA, 50 mM Tris-HCl pH 7.5, 150 mM KCl, 0.1 mg/ml BSA, 1 mM DTT, 5% glycerol, 20 min at 30 C; 8% native PAGE in TBE; Hill fit. Conditions: protein: recombinant; tags: tag removed with TEV; label: 3'-6-FAM. (In general: In EMSA bound probe runs differently from free probe, usually more slowly.)

For the molecule AAAAAAAAAAAAAAAAAAAA (ssDNA, 5'-P-dSpacer (tetrahydrofuran abasic, 5'-dRP mimic) added before A1) [KY11, 5'-P-dSpacer-(dA)20], the binding signal turned out to be 2 fold reduction.

The values are drawn from publication PMC7515722, “Participation of RecJ in the base excision repair pathway of Deinococcus radiodurans”.
